Data from the MegaScale stability set (Tsuboyama et al. 2023).

B1: EEHEE_rd4_0003 (parent)
chain: KKVTINGVEIKFNNPEEAVKFALELAKRLNLRIEFHGDQIKIE

Variants of: B1
Test: folding stability dG (cDNA display proteolysis); higher = more stable
Details: PBS, room temperature

Compared with KKVTINGVEIKFNNPEEDVKFALELAKRLNLRIEFHGDQIKIE [A18D], KKVTINGVEIKFNNPEEMVKFALELAKRLNLRIEFHGDQIKIE [A18M] is higher in “folding stability dG” value: 1.41 kcal/mol for the first, 2.47 kcal/mol for the second.

Going from KKVTINGVEIKFNDPEEAVKFALELAKRLNLRIEFHGDQIKIE [N14D] to KKVTINGVEIKFNGPEEAVKFALELAKRLNLRIEFHGDQIKIE [N14G], the “folding stability dG” value falls from 2.56 kcal/mol to 2.22 kcal/mol.

First: KKVTINGVEIKFNLPEEAVKFALELAKRLNLRIEFHGDQIKIE [N14L]
Second: KKVTINGVEIKFNHPEEAVKFALELAKRLNLRIEFHGDQIKIE [N14H]
The “folding stability dG” value of the first is higher: 2.56 kcal/mol for the first, 2.37 kcal/mol for the second.

First: KKVTINGVEIKFNSPEEAVKFALELAKRLNLRIEFHGDQIKIE [N14S]
Second: KKVTINGVEIKFNWPEEAVKFALELAKRLNLRIEFHGDQIKIE [N14W]
The “folding stability dG” value of the first is higher: 2.93 kcal/mol for the first, 2.39 kcal/mol for the second.

First: KKVTINGVEIKFNEPEEAVKFALELAKRLNLRIEFHGDQIKIE [N14E]
Second: KKVTINGVEIKFNMPEEAVKFALELAKRLNLRIEFHGDQIKIE [N14M]
The “folding stability dG” value of the first is lower: 1.86 kcal/mol for the first, 2.38 kcal/mol for the second.

First: KKVTINGVEIKFNCPEEAVKFALELAKRLNLRIEFHGDQIKIE [N14C]
Second: KKVTINGVEIKFNKPEEAVKFALELAKRLNLRIEFHGDQIKIE [N14K]
The “folding stability dG” value of the first is higher: 2.98 kcal/mol for the first, 2.35 kcal/mol for the second.

First: KKVTINGVEIKFNRPEEAVKFALELAKRLNLRIEFHGDQIKIE [N14R]
Second: KKVTINGVEIKFNYPEEAVKFALELAKRLNLRIEFHGDQIKIE [N14Y]
The “folding stability dG” value of the first is higher: 2.44 kcal/mol for the first, 2.41 kcal/mol for the second.

Going from KKVTINGVEIKFNPPEEAVKFALELAKRLNLRIEFHGDQIKIE [N14P] to KKVTINGVEIKFNAPEEAVKFALELAKRLNLRIEFHGDQIKIE [N14A], the “folding stability dG” value falls from 2.4 kcal/mol to 2.25 kcal/mol.

Compared with KKVTINGVEIKFNVPEEAVKFALELAKRLNLRIEFHGDQIKIE [N14V], KKVTINGVEIKFNTPEEAVKFALELAKRLNLRIEFHGDQIKIE [N14T] is higher in “folding stability dG” value: 2.36 kcal/mol for the first, 3.02 kcal/mol for the second.

First: KKVTINGVEIKFNQPEEAVKFALELAKRLNLRIEFHGDQIKIE [N14Q]
Second: KKVTINGVEIKFNIPEEAVKFALELAKRLNLRIEFHGDQIKIE [N14I]
The “folding stability dG” value of the first is lower: 2.06 kcal/mol for the first, 2.36 kcal/mol for the second.

First: KKVTINGVEIKFNFPEEAVKFALELAKRLNLRIEFHGDQIKIE [N14F]
Second: KKVTINGVEIKFNNGEEAVKFALELAKRLNLRIEFHGDQIKIE [P15G]
The “folding stability dG” value of the first is higher: 2.64 kcal/mol for the first, 2.53 kcal/mol for the second.

Compared with KKVTINGVEIKFNNKEEAVKFALELAKRLNLRIEFHGDQIKIE [P15K], KKVTINGVEIKFNNVEEAVKFALELAKRLNLRIEFHGDQIKIE [P15V] is higher in “folding stability dG” value: 2.47 kcal/mol for the first, 2.67 kcal/mol for the second.

Going from KKVTINGVEIKFNNREEAVKFALELAKRLNLRIEFHGDQIKIE [P15R] to KKVTINGVEIKFNNCEEAVKFALELAKRLNLRIEFHGDQIKIE [P15C], the “folding stability dG” value rises from 2.79 kcal/mol to 3.65 kcal/mol.

First: KKVTINGVEIKFNNMEEAVKFALELAKRLNLRIEFHGDQIKIE [P15M]
Second: KKVTINGVEIKFNNEEEAVKFALELAKRLNLRIEFHGDQIKIE [P15E]
The “folding stability dG” value of the first is higher: 2.97 kcal/mol for the first, 2.52 kcal/mol for the second.

Going from KKVTINGVEIKFNNDEEAVKFALELAKRLNLRIEFHGDQIKIE [P15D] to KKVTINGVEIKFNNAEEAVKFALELAKRLNLRIEFHGDQIKIE [P15A], the “folding stability dG” value rises from 2.46 kcal/mol to 2.78 kcal/mol.

First: KKVTINGVEIKFNNNEEAVKFALELAKRLNLRIEFHGDQIKIE [P15N]
Second: KKVTINGVEIKFNNWEEAVKFALELAKRLNLRIEFHGDQIKIE [P15W]
The “folding stability dG” value of the first is lower: 2.45 kcal/mol for the first, 3.67 kcal/mol for the second.

Compared with KKVTINGVEIKFNNHEEAVKFALELAKRLNLRIEFHGDQIKIE [P15H], KKVTINGVEIKFNNTEEAVKFALELAKRLNLRIEFHGDQIKIE [P15T] is lower in “folding stability dG” value: 2.84 kcal/mol for the first, 2.74 kcal/mol for the second.

First: KKVTINGVEIKFNNLEEAVKFALELAKRLNLRIEFHGDQIKIE [P15L]
Second: KKVTINGVEIKFNNIEEAVKFALELAKRLNLRIEFHGDQIKIE [P15I]
The “folding stability dG” value of the first is higher: 2.9 kcal/mol for the first, 2.85 kcal/mol for the second.

First: KKVTINGVEIKFNNYEEAVKFALELAKRLNLRIEFHGDQIKIE [P15Y]
Second: KKVTINGVEIKFNNSEEAVKFALELAKRLNLRIEFHGDQIKIE [P15S]
The “folding stability dG” value of the first is higher: 3.14 kcal/mol for the first, 2.77 kcal/mol for the second.

First: KKVTINGVEIKFNNFEEAVKFALELAKRLNLRIEFHGDQIKIE [P15F]
Second: KKVTINGVEIKFNNQEEAVKFALELAKRLNLRIEFHGDQIKIE [P15Q]
The “folding stability dG” value of the first is higher: 3.12 kcal/mol for the first, 2.48 kcal/mol for the second.

Compared with KKVTINGVEIKFNNPDEAVKFALELAKRLNLRIEFHGDQIKIE [E16D], KKVTINGVEIKFNNPWEAVKFALELAKRLNLRIEFHGDQIKIE [E16W] is higher in “folding stability dG” value: 2.53 kcal/mol for the first, 2.99 kcal/mol for the second.

Going from KKVTINGVEIKFNNPIEAVKFALELAKRLNLRIEFHGDQIKIE [E16I] to KKVTINGVEIKFNNPYEAVKFALELAKRLNLRIEFHGDQIKIE [E16Y], the “folding stability dG” value rises from 2.59 kcal/mol to 2.7 kcal/mol.

Compared with KKVTINGVEIKFNNPKEAVKFALELAKRLNLRIEFHGDQIKIE [E16K], KKVTINGVEIKFNNPQEAVKFALELAKRLNLRIEFHGDQIKIE [E16Q] is higher in “folding stability dG” value: 2.48 kcal/mol for the first, 2.6 kcal/mol for the second.

Going from KKVTINGVEIKFNNPMEAVKFALELAKRLNLRIEFHGDQIKIE [E16M] to KKVTINGVEIKFNNPGEAVKFALELAKRLNLRIEFHGDQIKIE [E16G], the “folding stability dG” value falls from 2.66 kcal/mol to 2.48 kcal/mol.

Going from KKVTINGVEIKFNNPNEAVKFALELAKRLNLRIEFHGDQIKIE [E16N] to KKVTINGVEIKFNNPSEAVKFALELAKRLNLRIEFHGDQIKIE [E16S], the “folding stability dG” value rises from 2.43 kcal/mol to 2.54 kcal/mol.

Compared with KKVTINGVEIKFNNPHEAVKFALELAKRLNLRIEFHGDQIKIE [E16H], KKVTINGVEIKFNNPLEAVKFALELAKRLNLRIEFHGDQIKIE [E16L] is higher in “folding stability dG” value: 2.47 kcal/mol for the first, 2.69 kcal/mol for the second.

Compared with KKVTINGVEIKFNNPCEAVKFALELAKRLNLRIEFHGDQIKIE [E16C], KKVTINGVEIKFNNPAEAVKFALELAKRLNLRIEFHGDQIKIE [E16A] is lower in “folding stability dG” value: 3.56 kcal/mol for the first, 2.61 kcal/mol for the second.

First: KKVTINGVEIKFNNPTEAVKFALELAKRLNLRIEFHGDQIKIE [E16T]
Second: KKVTINGVEIKFNNPFEAVKFALELAKRLNLRIEFHGDQIKIE [E16F]
The “folding stability dG” value of the first is lower: 2.46 kcal/mol for the first, 2.69 kcal/mol for the second.

Compared with KKVTINGVEIKFNNPVEAVKFALELAKRLNLRIEFHGDQIKIE [E16V], KKVTINGVEIKFNNPPEAVKFALELAKRLNLRIEFHGDQIKIE [E16P] is lower in “folding stability dG” value: 2.53 kcal/mol for the first, 2.08 kcal/mol for the second.

With KKVTINGVEIKFNNPREAVKFALELAKRLNLRIEFHGDQIKIE [E16R] the “folding stability dG” value was 2.6 kcal/mol.
